From the nanobody polyreactivity screen of Harvey et al. (2022)

Experiment: yeast display, Sf9 membrane polyspecificity reagent, FACS + sequencing; frameworks hold sequencing errors
Procedure, shortened: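 Nanobodies from a synthetic yeast display library (Saccharomyces cerevisiae BJ5465), induced 36–48 hours with galactose, were stained 1 hour at 4 °C with 10% biotinylated, detergent-solubilized Sf9 membrane reagent, enriched on streptavidin microbeads, then FACS-sorted. Anti-HA (expression) and streptavidin (reagent binding) fluorescence set low and high (top ~1%) gates. Polyreactivity labels come from the gate of origin. Genes were colony-PCR amplified, MiSeq 2 × 250 sequenced and filtered by CDR length.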

Row | Sequence | polyreactivity (PSR sort gate)
1 | QFQLVESGGGLVQAGGSLRLSCAASGRSFNRNAMGWYRQAPGKERELVAAISRSGTRTYYADSVKGRFTISRDNAKNTVYLQMNSLKPEDTAVYYCNALRVDGGDYWGQGTQVTVSS | high polyreactivity
2 | QVHLVESGGGLVQAGGSLRLSCAASGRTFDHNTMGWYRQAPGKERELVAAISWSGGTTYYADSVKGRFTISRDNAKNTVYLQMNSLKPEDTAVYYCAADRSPGSYGYQYDYWGQGTQVTVSS | low polyreactivity
3 | QVQLVESGGRLVQAGGSLRLSCAPSGFTFYRYAMGWYRQAPGKEREFVAAITWSGGSTYYADSVKGRFTISRDNSKNTVYLQMNSLKPEDTAVYYCAAYVGFDGTREYDYWGQGTQVTVSS | high polyreactivity
4 | QVQLGESGGGLVQAGGSLRLSCAASGRTSTGYAMGWYRQAPGKERELVAGIDKIGGRTYYADSVKGRFTISRDNAKNTVYLQMNSLKPEDTAVYYCAKTRYFSVGTHWDYYYWGQGTQVTVSS | high polyreactivity
5 | QVQLVESGGGIVQAGGSLRLSCAASGRIFAWNAMGWYRQAPGKERELVAYADSVKGRFTISRDNAKNTVYLQMHSLNPEDSAVYYCAKVVTPYVPGDSYWYDYWGQGTQVTVSS | low polyreactivity
6 | QVQLVESGGGLVQPGGSFHLSCAASGSIFVVYAMGWYRQAPVKERELVAAITSGGSTYYADSVKGRFTISRDNAKKTVYLQMNSLKPEDTAVYYCATTYRDGVYELTTFDYWGQGTQVTVSS | low polyreactivity
7 | QVQLQERAAWCRRAGSLRLSCAASGNISDYYFMGWYRQAPGKERELVAAIAPGSNTYYADSVKGRFTISRDNAKNTVYLQMNSLKPEDTAVCFCGANSTQYTWFDYWGQGTQVPVSS | low polyreactivity
8 | QVQHVESGGGLVQAGGRLRLSCAASGGIYYYAMGWYRQAPGKERELVAAISSGGGNTNYADSVKGRFTISRDNAKNTVYLQMNSLKPEDTAVYYCATDGFIPTYSYTEIGYDYWGQGTQVTVSS | low polyreactivity
9 | QVQLVESGGGLVQAGGSLRLSCAASGRTFGYYVMGCYRQAPGKERELVAAISASGGSTYYADSVKGRFTISRDNAKNTVYLQMNSLKPEDTAVYYCNADYLSQPDWYYFYLFDYWGQGTQVTVSS | high polyreactivity
10 | QVQLVESGGGLVQAGGSLRLICAASGSIFSSYAMGWYRQAPGKERELVAAITSGGSTYYADSVKGRFTISRDNAKNTVYLQMNSLKPEDTAVYYCAARQVRTSKLHMGYWGQGTQVTVSS | low polyreactivity
11 | QVQLVESGGGLVQAGGSLRLSCAASGRILYYYAMGWYRQAPGKERELVAAISWSGGSTYYADSVKGRFTISRDNAKNTVYLQMNSLKPEDTAVYYCAADWRGYRLERAYDYWGQGTQVTVSS | low polyreactivity
12 | QVQRLESVGRLVQAGGSLRLSSAPSGIIFRGYVMGWYIQARGKESELVAAITSSTGSTYYADSVKGRFTISRENAKNTGYLLMNILKPEDTAVYYCNVDYYVPNDGYEYWGQGTQVTVSS | low polyreactivity
13 | QVHLVDSGGGLVQAGGSLRLSCSASGLIFSGYAMRWYRQAPGKERELVAAITRRGSRTYYADSVTGRFTISRDKAKNTVYLQMNSLKPEDTAVYYCAADRFQGRDDYWGQGTQVTVSS | high polyreactivity
14 | QVQLVESGGGLVQAGGSLRLSCAASGSTFVRNAMGWYRQAPGKERELVAAITSSGGSTYYADSVKGRFTISRDNAKNTVYLQMNSLKPEDTAVYYCAKRRYYRYDYWGQGTQVTVSS | low polyreactivity
15 | QVQLVESRGGLVQAGGSLRLSCAASGSTFYRYAMAWYRQAPGKERELVARINTGGSTSYADSVKGRFTISRDNAKNTVYLQMNILKPEDTAVYYCAASSRYAVFGRYYYCGQGTQVTVSS | high polyreactivity
16 | QLQLVESGGGLVQAGGRLRLSCAASGRTLGKYAMGWYRQAPGKEREFVAAISSSGSRTFYADSVKGRFTISRDNAKYTVSLQMNSLKPEDTAVYYCAADYYSRGYGYWGQGTQVTVSS | high polyreactivity
17 | QVQLVESGGCLVQAGGSIRLSCAASGSTFDINAMGWYRQAPGKERELVASITFSGGSTYYADSVKGRFTISRDNAKNTGYLQMNSLKPEDTAVYYCAADSSGEYPGGYWGQGTQVTVSS | low polyreactivity
18 | QVQHVESGGGLVQAGGRLRLRCAASGSTFDDNAKGWYIHAPGKERELVAGISDGDDSTNYADSVKGRFTISRDNAKNTVYFQMNRLKPEDTAVYYCNARYVRTYGVRFGYDYWGQGTQLTVSS | low polyreactivity
19 | QVQLVESGGGLVQAGGSLRLSSAASGRIFVGYAKGWYIQAPGKERELVAGIRYSGGSTYYADSVKGRFTISRDNAKNTVYLQMNSLKPEDTAVYYCATQVWHYAGRPNYKYDYWGQGTQVTVSS | low polyreactivity
20 | QVQLVQSGRGLVHAGCSLRLSCAASGRIYAGNAMGLYRQPPGKERELFATITSGGSTYYADSVKGRFTISRDNAKNTVYLQMNSLKPEDTAVYYCNAVNYWVKSRFSLTWEFAVVYWGQGTQVTVSS | low polyreactivity
21 | QVQLVESGGGLVQAGGSLRLSCAASGITIYAYAMGWSRQAPGKERELVAAINWSGGRTFYADSVKGRFTISRDNAKNTDYLQMNSLKPEDTAVYYCAAAYTRSYSWARGYDYWGQGTQVTVSS | high polyreactivity
22 | QVQLVESGGGLVQAGGSLRLSCAASGITFSGNAMGWYRQAPGKERELVAAISGRGGSTYYADSVKGRFTISRDNAKNTVYLQMNSLKPVDTAVYYCAADSPENRYNYWGQGTQVTVSS | high polyreactivity

Row | Sequence | polyreactivity (PSR sort gate)
23 | QVQLVESGGCLVQAGGSLRLSCAASGSTFTGYAMGWYRQAPGKEREFVATITKRGGRTYYADSVKGRFTISRDHAKNTVYLQMNSLKPEDTAVYYCARDQGKLVVPYDYWGQGTQVTVSS | high polyreactivity
24 | QVQLVESGGGLVQAGGSLRLSCAASGRIFLSNAMGWYIQAPGKEREFVAAISWRGGSTYYADSVKGRFTISRDNAKNTVYLQMNSLKPEDTAVYYCAVDVRYYYGRSYDYWGQGTQVTVSS | high polyreactivity
25 | QVQLVESGGGLVQAGGSLRLSCAASGRIFAYYAMGWYRQAPGKERELVAAISFIGGSTYYADSVKGRFTISRDNAKNTVYLQMNSLKPEDTAVDYCTAGYVRRYSPSSSWRYDYWGQGTQVTVSS | high polyreactivity
26 | QVQLVESGGGLVQAGGSLRLSCAASGSTFLHYAMGWYRQAPGKERELVATITSGDSTSYADSVKGRFTISRDNAKNTVYLQMNSLKPEDTAVYYCTANRVHRSASPYDYWGQGTQVTVSS | low polyreactivity
27 | QVQLVESGGGLVQAGGSLRLSCAASGSIFNRYAMGWYRPAPGKEREFVARISKRGGGTYYADSVKGRFTISRDNAKNTVYLQMNSLKPEDTAVYYCAARAYDHTGHVGFDYWGQGTQVTVSS | high polyreactivity
28 | QVQLVESGGGLVQAGGSLRLSCAASGSILRQYAMGWYRQAPGKERELVATITGDGSTNYADSVKGRFTISRDNAKNTVYLQMNSLKPEDTAVYYCNTYLTYPYPNVEVLVYGFKLDYWGQGTQVTVSS | low polyreactivity
29 | QVQLVESGGGLVQAGGSLRLSCAASGITFDTYDMGWYRQAPGKERELVAAISSSGGSTYYADSVKGRFTISRDNAKNTVYLQMNSLKPEDTAVYYCAAVLLDDDYSYYYWGQGTQVTVSS | low polyreactivity
30 | QVQLVESGGCLVPAGGSLRLSCAASGRTFYYNAMGWYRQAPGKERELVAAISSSGGRTYYADSVKGRFTISRDNGKNTVYLQMNSLKPEDTAVFYCAALTNARGFDYWGQGTQVTVSS | high polyreactivity
31 | QVQLVESGGGLVQAGGSLRLSCAASGRTIGGYAMGWYRQAPGKEREMVAAINYSGGTTYYADSVKGRFTISRDNAKNTVYLQMNSLKPEDTAVYYCIRDYHSESGNPGYQYGYWGQGTQVTVSS | high polyreactivity
32 | QVQLVESGGGLVQAGGSLRLICAASGRIFCRNTMGWYRQAPGKERELVAAINYSGGRTYYADSVKGRFTISRDNAKNTVYLLMNSLKPEDTAVYYCAATPPVATNGRYYYWGQGTQVTVSS | low polyreactivity
33 | QVQLVESGGGLVQAGGSLRLSCAASGSIFLYNAMGWYRQAPGKERELVATITSSTGSTYYADSVKGRFTISRDNAKNTVYLQMNSLKPEDTAVYYCATRESRRQRRYYYWGQGTQVTLSS | high polyreactivity
34 | QVQLVESGGGLVQAGGSLRLSCAASGGIFDTYAMGWYRQAPGKERELVAAISSTGGSSYYADSVKGRFTISRDNAKNTVYLQMNSLKPEDTAVYYCNAVLARFWRYRRWEYDYWGQGTQVTVSS | high polyreactivity
35 | QVQLVESGGGLVQAGGSLRLSCAASGSTFYFYAMGWYRPAPGKERELVAAITYSGGSTYYADSVKGRFTISRDNAKNTVYLQMNSLKPEDTAVYYCAAQWRRHSTRSRYYYWGQGSQVTVSS | high polyreactivity
36 | QVQLVESGGGLVQAGGSLRLSCAASGIIFTYYAMGWYRQAPGKERELVAAITSSAGSTYYADSVKGRFTISRDNAKNTVYLQMNSLKPVDTAVYYCAAYSVYYYQGDDYWGQGTQVTVSS | high polyreactivity
37 | QVQLVESGGGLVQAGGSLRLSCAASGSNFGPNAMGWYRQAPGKERELVAVISFRGGNTYYADSVKGRFTISRDNAKNTVYLQMNSLKPEDTAVYYCAARGYRYGYGYWGQGTQVTVSS | high polyreactivity
38 | QVQLQESGSGLFQAGGSLRQSCAASGAIFPAYLMGWYRQAPGKERELVAGISYGSITYCADSVKGRFNISRDNAKNTVYLKMNSLKPEDTAVFGYWGQGTQVTVSS | low polyreactivity
39 | QVQLVESGGVLVQAGGSLRLSCAASGYIFYPYAMGWYRQAPGKERELVAAISGSGSGTYYADSVKGRFTISRDNAKNTVYLQMNSLKPEDTAVYYCAKYLYDNVWMDYWGQGTQVTVSS | low polyreactivity
40 | QVQLVESGGGLVQAGGSLRLSCAASGRIFRYNTLGWYRQAPGKERELVAAINSSGGRTYYADSVKGRFTISRDNAKNTVYLQMNSLKPEDTAVYYCAAVIYVLSGPGYDYWGQGTQVTVSS | high polyreactivity
41 | QVQLVESGGGLVQAGGSLRLSCAASGFTFYGYAMGWYRQAPGKERELVAAITSSGGSTYYADSVKGRFTISRDNAKNTVYLQMNSLKPEDTAVYYCAVVTILVFRYVVPYDYWGQGTQVTVSS | high polyreactivity
42 | QVQLVESGGGLVQAGGSLRLSCAASGRIFDLNAMGWYRQAPGKERELVAVISWSGGIKYYADSVKGRFTISRDNAKNTVYLQMNSLKPEDTAVYYCNADTVFDPYYEFDYWGLGTQVTVSS | low polyreactivity
43 | QVQLVESGGGLVQAGGSLRLSCAASGTTNDYYDMGWYRQAPGKERELDAAISSGGDSTYYADSVMGRFTISRDNAKNTVYLQMNSLKPEDTAVYYCAAAVYYGQSVWYYYWGQGTEVTVSS | high polyreactivity
